B1: P1: 2′F RNA aptamer selected by whole cell SELEX on Panc-1, SEQ ID NO:4 (nucleic acid)
chain: GGGAGACAAGAAUAAACGCUCAAUGCGCUGAAUGCCCAGCCGUGAAAGCGUCGAUUUCCAUCCUUCGACAGGAGGCUCACAACAGGC
modifications: all phosphodiester, sugars by position and methylation of C not given here; 2'-fluoro modified RNA
B2: P19: 2′F RNA aptamer selected by whole cell SELEX on Panc-1, SEQ ID NO:2 (nucleic acid)
chain: GGGAGACAAGAAUAAACGCUCAAUGGCGAAUGCCCGCCUAAUAGGGCGUUAUGACUUGUUGAGUUCGACAGGAGGCUCACAACAGGC
modifications: all phosphodiester, sugars by position and methylation of C not given here; 2'-fluoro modified RNA

How the values were obtained:
pancreatic cancer = conditions: cited from earlier work
Panc-1 engrafted mice = assay: Anti-tumor effects in Panc-1 (PANC-Luc) engrafted NOD/SCID mice; format: in vivo; conditions: P19 conjugates 1 nmol tail vein; gemcitabine 3 mg I.P.; listed as Gemcitabine
Description: To establish the traceable tumor animal models, subcutaneous implantations were performed by injecting 25 μl of a monocellular suspension containing 10^6 Panc-1 cell with luciferase expression (PANC-Luc) cells and a 25p growth factor reduced matrigel matrix (BD Biosciences, USA) under the dorsal skin of 6-week-old female NOD/SCID mice (BioLasco Co., Taiwan). The firefly luciferase fragment was inserted into the pcDNA-3.1(+) backbone encoding ampicillin resistance for selection in bacteria and neo gene for selection in mammalian cells. The recombinant constructs for stable cell line were purified using plasmid midi kit (QIAGEN, USA). PANC-1 cells were transfected with recombinant constructs for 24 h. The following day, culture medium was replaced with standard medium containing 1.2 mg/mL G418 (Merck, Germany) for stable clone selection. […] Luciferase expression was assessed using the Luciferase Assay System. […] Tumor growth was monitored by evaluating bioluminescence using the spectrum of IVIS 200 before first injection and one week after last injection. […] The mice were imaged in the spectrum of IVIS 200 and bioluminescent signals were analyzed using Living Image Software (Caliper Life Sciences, Alameda, Calif.). Tumor size was measured by ruler and calculated by the formula 0.52*length*width*width

[1] = Cytotoxicity compared with gemcitabine (hemoglobin, WBC, neutrophil, platelet counts); format: in vivo; conditions: engrafted mice
Description: FIG. 5A-5F. In vivo experiments. (FIG. 5A) The conjugates of P19 and P1 was injected via tail vein injection in Panc-1 engrafted mice. The conjugates were injected day 1, 3 and 5 for 3 or 4 weeks. Student t-test (unpaired, two-tailed) was used for statistical analysis. *t-test: […] (FIG. 5B) The photon was counter by I.V.I.S and signal changes were calculated in traceable xenoengrafted mice. (FIG. 5C) The representative images of the spectrum of IVIS 200 of each group. (FIG. 5D) Comparison of anti-tumor effect of C/EBPα-saRNA with gemcitabine in Panc-1 engrafted mice by tail vein injection. Tumor size was measured. *t-test: […] (FIG. 5E) The tumor growth inhibition of gemcitabine-resistant ASPC-1 engrafted mice by tail vein injection. Signal changes were calculated. Metastasis to ascites was measured. *t-test: […] (FIG. 5F) Comparison of cytotoxicity with gemcitabine. Hemoglobin, WBC, neutrophil and platelet were counted.

Panc-1 = assay: Binding to Panc-1 cells by flow cytometry with Cy3-labeled aptamers (KD); design: species or system human; conditions: Cy3 labeled aptamers 15.6-500 nM, MFI, one site binding non-linear regression; read-out: binding affinity (Kd)
Description: Aptamer binding and uptake was also assessed by flow cytometry. For the assay, cells were detached using a non-enzymatic cell dissociation solution, washed with PBS and suspended in binding buffer. Next, Cy3-labeled aptamers were added and incubated for 1 hours at 37° C. The binding of individual aptamers for the starting pool as a control to pancreatic cancer cells was performed in triplicate. Flow cytometry was performed on a Cyan (Beckman Coulter counter) and Fortessa. The data were analyzed with FlowJo software.
To determine the binding affinity of aptamers to Panc-1, the median fluorescence intensity (MFI) of each concentrations was determined and subtracted the mean fluorescence background of controls from the corresponding MFI of aptamers described by Sefah et al^53. The dissociation constants were calculated using one site binding non-linear curve regression with a Graph Pad Prism (GraphPad Software, La Jolla, Calif., USA).

[2] = tested on: pancreatic cell lines PANC-1, AsPC-1, MIA PaCa and Capan-1; assay: Live cell confocal internalization in pancreatic cancer cell lines; format: cell-based, human; conditions: Cy3-labeled RNA 100 nM
Description: (§1) For the internalization, the cells were grown in 35 mm glass bottom dishes (MatTek, Ashland, Mass., USA) with seeding at 1×10^5 cells in medium for 24 hrs. The RNAs were labeled with Cy3 using the Cy3 Silencer siRNA labeling kit (Ambion, Tex., USA.). Cy3-labeled RNAs at 100 nM were added to the cells and incubated for 1 hour. The images were taken using a Zeiss LSM 510 Meta Inverted 2 photon confocal microscope system using a C-Apo 40×/1.2 NA Water immersion objective.

[3] = tested on: Non pancreatic lines including Huh7, HepG2, MCF7 and PC3 cells; assay: Confocal internalization / cell binding in non pancreatic cancer lines; format: cell-based; conditions: Cy3-labeled RNA, liver, breast and prostate cancer lines
Description: as §1

cell membrane proteins = target: T1, cell membrane proteins (Homo sapiens, UniProt P38646); assay: Retrieval of cell membrane proteins by biotinylated aptamers and MASS-SPEC; conditions: peptide matching fingerprinting
T1 construct: cell membrane proteins were retrieved by biotinylated aptamers; endogenous in cells
T1 sequence (P38646 47-679): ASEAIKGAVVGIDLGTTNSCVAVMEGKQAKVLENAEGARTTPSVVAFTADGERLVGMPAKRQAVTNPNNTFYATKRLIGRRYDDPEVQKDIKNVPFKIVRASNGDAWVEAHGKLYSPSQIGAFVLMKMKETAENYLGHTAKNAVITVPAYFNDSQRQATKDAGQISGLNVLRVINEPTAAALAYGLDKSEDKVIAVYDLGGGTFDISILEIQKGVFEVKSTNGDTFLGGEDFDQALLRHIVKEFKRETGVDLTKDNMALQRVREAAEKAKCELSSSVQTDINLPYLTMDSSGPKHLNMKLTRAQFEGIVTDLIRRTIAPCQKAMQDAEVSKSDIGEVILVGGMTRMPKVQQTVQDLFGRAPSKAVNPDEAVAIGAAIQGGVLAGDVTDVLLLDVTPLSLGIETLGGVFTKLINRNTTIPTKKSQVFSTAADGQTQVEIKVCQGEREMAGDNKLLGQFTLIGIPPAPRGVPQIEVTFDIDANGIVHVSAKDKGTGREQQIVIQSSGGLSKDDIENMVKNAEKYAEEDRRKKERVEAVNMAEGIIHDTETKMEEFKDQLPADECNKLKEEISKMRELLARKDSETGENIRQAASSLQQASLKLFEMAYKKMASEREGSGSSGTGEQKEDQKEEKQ
Excerpt: (§2) P1 and P19 were labeled with biotin at the 3′ end. Target membrane proteins were isolated following procedures described by Daniels et al^26 or extracted by ProteoExtract Native Membrane protein Extraction Kit (Calbiochem). Agilent 6520 Q-TOF mass spectrometer used to identify aptamer retrieved proteins. A BIAcore T100 (GE Healthcare, Uppsala, Sweden) was used to measure binding by surface plasmon resonance (SPR) technique. BIAevaluation software (GE Healthcare) was used for analysis. Gel shift assay was also performed to validate the target ligand binding.

[4] = target: T2, mortalin (mitochondrial Hsp70) (Homo sapiens, UniProt P38646); assay: Gel shift assay; format: binding; conditions: native PAGE
T2 sequence (P38646 47-679): as above
Excerpt: as §2

[5] = tested on: human pancreatic cancer and normal pancreas tissue specimens; assay: Histopathology staining with Cy3 labeled aptamers, aptamer score; conditions: for No. of Patients, Low (<7) staining / No. of Patients, Medium (>7 and <14) staining / No. of Patients, High (>14 and <20) staining: 72 patient samples; for No. of Patients, Low (<7) staining: aptamer score <7; for No. of Patients, Medium (>7 and <14) staining: aptamer score >7 and <14; for No. of Patients, High (>14 and <20) staining: aptamer score >14 and <20; for recognition of pancreatic cancer versus normal pancreas tissues: Cy3 labeled aptamer, histopathology; for Survival Period, High (>14 and <20) staining group / Survival Period, Low (<7) staining group / Survival Period, Medium (>7 and <14) staining group: Table 5, Mean ± SD
Description: The samples were stained by aptamer P1 and P19 respectively. We linked P1 and P19 with Cy3 as marker and DAPI stating was performed for cell nuclei as background. The sample sections were then examined under microscope at 100× magnification, and the aptamer content in each slide of pancreatic cancer was determined by measuring the average of positive-stained particle numbers in five independent fields randomly.
A total of 72 patients (45 male and 27 female) of pancreatic adenocarcinoma had undergone surgical intervention between January 2008 and December 2010 in National Taiwan University Hospital. Diagnosis was settled by pathologic analysis of specimen. All of the enrolled patients fulfilled the informed consent to receive the procedure, and this study was Institutional Review Board approved of NTUH.

[6] = tested on: gemcitabine-resistant ASPC-1 engrafted mice; assay: Gemcitabine resistant AsPC-1 tumor in NOD/SCID mice; format: in vivo; conditions: tail vein, 4 injections at days 1, 3, 5, 7, sacrificed day 9
Description: (§3) For gemcitabine resistant tumour test, twelve 5-weeks-old female NOD/SCID mice were injected subcutaneously (S.C.) on the flank with 2.8×10^6 AsPC-1 pancreatic cancer cells in 0.05 ml PBS with 0.15 ml matrigel. After 3 weeks, mice were divided into four groups. One group served as untreated controls and the others injected with P1 (10 ug per injection), P19 (10 ug per injection) and P1 combined with P19 (5 ug of P1 with 5 ug of P19 per injection). Aptamer were injected through tail vein. Animals were injected 4 times at days 1, 3, 5, and 7, and were sacrificed at day 9.
as §3, with “To test chemoresistant tumor regression in mice,” for “For gemcitabine resistant tumour test,”, “ASPC-1 gemcitabine resistant” for “AsPC-1”, “P1,” for “P1 (10 ug per injection),”, “P19” for “P19 (10 ug per injection)”, “P19.” for “P19 (5 ug of P1 with 5 ug of P19 per injection).”

[7] = tested on: normal tissues such as liver, spleen, and kidney; T and B cells; assay: Staining of other normal tissues and T and B cells; design: species or system human; conditions: Cy3 labeled aptamer
Description: FIG. 2A-2B. Histology (FIG. 2A) The representative images by histopathological screen in normal tissues. The samples were stained with Cy3 labeled aptamer P1 and P19 respectively. The sample sections were then examined under microscope at 100× magnification. Cy3-labeled RNA. (FIG. 2B) Flow cytometry analysis of P19 and P1 in T and B cells. Cy3-labeled RNAs were tested for binding to T and B cell isolated from human blood.

[8] = target: T2, mortalin (mitochondrial Hsp70); assay: Surface plasmon resonance (BIAcore T100); format: binding; conditions: aptamer biotin-labeled at 3′ end immobilized on SA chip
Excerpt: as §2

Panc-1 cells = assay: Competition of Cy3 labeled P19 with unlabeled clones, confocal; format: binding, human; conditions: 200 nM Cy3 labeled P19, 1 μM unlabeled clone
Description: For competition assays, 200 nM of Cy3 labeled P19 aptamer was used to compete with either unlabeled clones (1 μM). The fluorescence intensity was quantified in the presence of increasing amounts of competitors using confocal microscopy and analyzed statistically. One-way ANOVA was used for statistical significant analysis (P<0.05).

Molecule | Kd (Panc-1) [nM] | internalization in pancreatic cancer cells [2] | internalization / binding in non pancreatic cancer lines [3] | target ligand identified (cell membrane proteins) | gel shift [4] | No. of Patients, Low (<7) staining [5] | No. of Patients, Medium (>7 and <14) staining [5] | No. of Patients, High (>14 and <20) staining [5] | recognition of pancreatic cancer versus normal pancreas tissues [5] | Survival Period, High (>14 and <20) staining group [5] | Survival Period, Low (<7) staining group [5] | Survival Period, Medium (>7 and <14) staining group [5] | anti-tumor effect of aptamers only (tumor size) [6] | staining of other normal tissues including T and B cells [7] | binding by SPR [8] | other results
C#Cc1cccc(Nc2ncnc3cc(OCCOC)c(OCCOC)cc23)c1 [erlotinib] |  |  |  |  |  |  |  |  |  |  |  |  |  |  |  | median added to overall survival (pancreatic cancer; addition of erlotinib, randomized study): 11 days; survival benefit (pancreatic cancer; phase III trial of erlotinib with gemcitabine, advanced disease): marginal survival benefit
Nc1ccn([C@@H]2O[C@H](CO)[C@@H](O)C2(F)F)c(=O)n1 [gemcitabine, 4-amino-1-(2-deoxy-2,2-difluoro-β-D-erythro-pentofuranosyl)pyrimidin-2(1H)-on] |  |  |  |  |  |  |  |  |  |  |  |  |  |  |  | anti-tumor effects compared with PBS group (Panc-1 engrafted mice): failed to reduce tumor growth; cytotoxicity (hemoglobin, WBC, neutrophil, platelet) [1]: cytotoxicity such as reduction of hemoglobin and neutrophils; cytotoxicity (hemoglobin, WBC, neutrophil, platelet) ([1]; listed as Gemcitabine): cytotoxicity on RBCs and neutrophils; 1-year survival rate (pancreatic cancer; single agent, improved from 16): 19%
truncated P19: P19 truncated to 28mer including the common motif GAAUGCCC, SEQ ID NO:1 (CUCAAUGGCGAAUGCCCGCCUAAUAGGG; listed as RNA, chemistry not fully specified) | 8.77 | internalized into Panc-1 and AsPC-1 cells | negative reaction |  |  |  |  |  |  |  |  |  |  |  |  | 
B1 | 2.2 | punctate regions of Cy3 labeling | No Cy3 signal was observed | mitochondrial Hsp70 which is mortalin | shifted band was observed | 3 | 26 | 43 | recognized pancreatic cancer tissues specifically, not normal pancreas tissues | 13.1 ± 4.36 | 21.0 ± 2.64 | 15.9 ± 3.17 | anti-tumor effects in gemcitabine resistance tumour cells significantly | negative staining | bound to the mortalin | survival period, medium level group [5]: 15.9±3.17 months
B2 | 13.1 | punctate regions of Cy3 labeling | No Cy3 signal was observed | mitochondrial Hsp70 which is mortalin | shifted band was observed | 3 | 26 | 43 | recognized pancreatic cancer tissues specifically, not normal pancreas tissues | 13.0 ± 4.29 | 21.0 ± 2.64 | 15.6 ± 3.30 | anti-tumor effects in gemcitabine resistance tumour cells significantly | negative staining | bound to the mortalin | fluorescence intensity of labeled P19 in presence of unlabeled competitor (Panc-1 cells): significantly decreased

Reference: patent publication US11261449B2, “Anti-cancer RNA aptamers” (CITY OF HOPE, priority 2015, dated 2022)
